From patent publication US20100015126A1, “Methods of Binding of Cross-Beta Structures By Chaperones” (priority 2006, published 2010)

Target: T1, human BiP (Homo sapiens, UniProt P11021)
T1 construct: The human BiP gene except the signal peptide encoding region was obtained from Geneart (Germany); linker […]; made in house; host or cells: HEK 293E cells, transient transfection, PABC674 vector; secreted into the medium
Test: Competition ELISA: BiP binding to misfolded proteins under influence of crossbeta binding compounds
Conditions: fixed sub-optimal BiP concentration
Protocol: Binding of chaperones to immobilized (misfolded) protein ligands was determined using an enzyme linked immuno sorbent assay (ELISA) approach. For this purpose 50 μl/well of potential ligands at indicated concentrations or coat buffer only for control and background measurement purposes, were coated overnight at 4° C. or coated for 1 h at room temperature, with motion, in 50 mM NaHCO3 pH 9.6 (coat buffer). In general, ligands were coated at 5 μg/ml, unless stated otherwise. For example, BiP binding peptides 6BB# and oxLDL were coated at 50 μg/ml. Native haemoglobin (Sigma-Aldrich, H7379), albumin, IgIV Gammagard and ovalbumin controls were prepared from lyophilized stocks. The controls were prepared by dissolving lyophilized proteins at 1 mg/ml in PBS upon resuspending by pipetting, followed by a 30 minutes period at the roller device, at room temperature. The protein solutions were centrifuged for 10 minutes at 16,000*g and diluted in coat buffer. After coating the plates were washed at least three times with 50 mM Tris-HCl pH 7.3, 150 mM NaCl, 0.1% v/v Tween20, and blocked with Blocking reagent (Roche Diagnostics, Almere, The Netherlands; 11112589001), for 1 h at room temperature, with motion. Plates were washed three times and incubated in triplicate with indicated chaperone dilution series, at 50 μl/well, for 1 h at room temperature, with constant motion. For HSP90, 5 mM DTT is incorporated in the binding buffer (PBS/0.1% Tween20) to avoid unwanted disulfide bond formation of the HSP90. […] After four wash cycles, secondary antibodies were added to the wells when required, 50 μl/well, for 45′ at room temperature, with motion. RAMPO and SWARPO were used at 3000 times dilution. […] In a second experiment with more immobilized misfolded proteins and controls, the detection of bound HSP90 with the mix of two anti-HSP90 antibodies was achieved by mixing 1:1500 SWARPO with 1:3000 RAMPO. After 5 washes with wash buffer followed by two washes with PBS, binding of antibodies was assessed. […] Plates were read at 450 nm. Triplicates were averaged and standard deviations calculated. […] Subsequently, sub-optimal concentrations of chaperones for binding to misfolded protein ligands are determined, and these concentrations are used for inhibition studies.
In a subsequent study we analysed whether BiP interacts directly with the crossbeta structure, by performing ELISA binding studies with a fixed sub-optimal concentration of BiP and concentration series of crossbeta binding compounds. […]

T1 sequence (P11021 19-654): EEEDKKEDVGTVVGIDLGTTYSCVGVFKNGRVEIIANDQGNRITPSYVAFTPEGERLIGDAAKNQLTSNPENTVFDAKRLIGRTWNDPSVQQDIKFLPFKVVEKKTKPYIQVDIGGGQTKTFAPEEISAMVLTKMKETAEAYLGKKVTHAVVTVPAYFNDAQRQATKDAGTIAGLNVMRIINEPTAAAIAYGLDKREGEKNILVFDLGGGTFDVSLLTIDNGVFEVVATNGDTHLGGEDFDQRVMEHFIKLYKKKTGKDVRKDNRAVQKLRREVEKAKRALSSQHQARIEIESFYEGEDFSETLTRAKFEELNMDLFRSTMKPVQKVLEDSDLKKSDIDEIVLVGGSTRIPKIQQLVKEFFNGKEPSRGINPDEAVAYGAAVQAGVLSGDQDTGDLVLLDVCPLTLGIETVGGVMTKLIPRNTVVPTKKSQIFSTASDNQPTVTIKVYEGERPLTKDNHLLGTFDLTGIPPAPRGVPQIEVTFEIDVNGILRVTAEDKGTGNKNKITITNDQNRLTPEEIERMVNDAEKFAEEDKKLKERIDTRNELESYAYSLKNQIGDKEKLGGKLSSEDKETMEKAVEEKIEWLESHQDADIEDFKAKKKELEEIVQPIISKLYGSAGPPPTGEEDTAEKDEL

B1: dOVA standard: heat-denatured chicken ovalbumin (protein)
chain: GSIGAASMEFCFDVFKELKVHHANENIFYCPIAIMSALAMVYLGAKDSTRTQINKVVRFDKLPGFGDSIEAQCGTSVNVHSSLRDILNQITKPNDVYSFSLASRLYAEERYPILPEYLQCVKELYRGGLEPINFQTAADQARELINSWVESQTNGIIRNVLQPSSVDSQTAMVLVNAIVFKGLWEKAFKDEDTQAMPFRVTEQESKPVQMMYQIGLFRVASMASEKMKILELPFASGTMSMLVLLPDEVSGLEQLESIINFEKLTEWTSSNVMEERKIKVYLPRMKMEEKYNLTSVLMAMGITDVFSSSANLSGISSAESLKISQAVHAAHAEINEAGREVVGSAEAGVDAASVSEEFRADHPFLFCIKHIATNAVLFFGRCVSP
B1 was tested, and the “Influence of K2P tPA on interaction of BiP with misfolded protein” value (10 mM ε-amino caproic acid) was “−”, the “Influence of tPA on interaction of BiP with misfolded protein” value (10 mM ε-amino caproic acid) was “↓ (a ↓ sign refers to inhibited abolished binding of BiP)” and the “Influence of Congo red on interaction of BiP with misfolded protein” value (concentration series of Congo red) was “↓ (a ↓ sign refers to inhibited abolished binding of BiP)”. The “Influence of ThS on interaction of BiP with misfolded protein” value (concentration series of ThS) was “↓ (a ↓ sign refers to inhibited abolished binding of BiP)”.
